Reference: patent EP4740967A1 (Shanghai Escugen Biotechnology Co., Ltd., dated 2026)

B1: 9D1-GGFG-Exatecan (antibody, human IgG1, kappa, V domains shown)
VH: QIQLVQSGAEVKKPGASVKISCKASGYSFTDYHMNWVRQAPGKGLEWIGNIDPYYGSPTYNHKFKGRVTLTVDTSTSTAYMELSSLRSEDTAVYYCANYGRGNSFPYWGQGTLVTVSS
VL: DIVMTQSPSSLAVSLGERATINCKSSQSLLNSGNQRNYLTWYQQKPGQPPKLLIYWASTRESGVPDRFSGSGSGTDFTLTISSLQAEDVAVYYCQNDYSFPFTFGQGTKLEIKR
modifications: MC-GGFG-Exatecan linker-drug on reduced interchain cysteines (Conjugation Method 1, DAR 8)
B2: 9D1-LD-73 (antibody, human IgG1, kappa, V domains shown)
VH: QIQLVQSGAEVKKPGASVKISCKASGYSFTDYHMNWVRQAPGKGLEWIGNIDPYYGSPTYNHKFKGRVTLTVDTSTSTAYMELSSLRSEDTAVYYCANYGRGNSFPYWGQGTLVTVSS
VL: DIVMTQSPSSLAVSLGERATINCKSSQSLLNSGNQRNYLTWYQQKPGQPPKLLIYWASTRESGVPDRFSGSGSGTDFTLTISSLQAEDVAVYYCQNDYSFPFTFGQGTKLEIKR
modifications: LD-73 linker-drug (Exatecan, PEG side chain) on reduced interchain cysteines (Conjugation Method 1, DAR 8)
B3: 9D1-LD-74 (antibody, human IgG1, kappa, V domains shown)
VH: QIQLVQSGAEVKKPGASVKISCKASGYSFTDYHMNWVRQAPGKGLEWIGNIDPYYGSPTYNHKFKGRVTLTVDTSTSTAYMELSSLRSEDTAVYYCANYGRGNSFPYWGQGTLVTVSS
VL: DIVMTQSPSSLAVSLGERATINCKSSQSLLNSGNQRNYLTWYQQKPGQPPKLLIYWASTRESGVPDRFSGSGSGTDFTLTISSLQAEDVAVYYCQNDYSFPFTFGQGTKLEIKR
modifications: LD-74 linker-drug (Exatecan, polysarcosine side chain) on reduced interchain cysteines (Conjugation Method 1, DAR 8)
B4: 9D1-vc-PAB-MMAE (antibody, human IgG1, kappa, V domains shown)
VH: QIQLVQSGAEVKKPGASVKISCKASGYSFTDYHMNWVRQAPGKGLEWIGNIDPYYGSPTYNHKFKGRVTLTVDTSTSTAYMELSSLRSEDTAVYYCANYGRGNSFPYWGQGTLVTVSS
VL: DIVMTQSPSSLAVSLGERATINCKSSQSLLNSGNQRNYLTWYQQKPGQPPKLLIYWASTRESGVPDRFSGSGSGTDFTLTISSLQAEDVAVYYCQNDYSFPFTFGQGTKLEIKR
modifications: MC-VC-PAB-MMAE linker-drug on partially reduced interchain cysteines (Conjugation Method 2, DAR 4)
B5: 9D1-LD-57 (antibody, human IgG1, kappa, V domains shown)
VH: QIQLVQSGAEVKKPGASVKISCKASGYSFTDYHMNWVRQAPGKGLEWIGNIDPYYGSPTYNHKFKGRVTLTVDTSTSTAYMELSSLRSEDTAVYYCANYGRGNSFPYWGQGTLVTVSS
VL: DIVMTQSPSSLAVSLGERATINCKSSQSLLNSGNQRNYLTWYQQKPGQPPKLLIYWASTRESGVPDRFSGSGSGTDFTLTISSLQAEDVAVYYCQNDYSFPFTFGQGTKLEIKR
modifications: LD-57 linker-drug (MMAE) on partially reduced interchain cysteines (Conjugation Method 2, DAR 4)
B6: 9D1-LD-12 (antibody, human IgG1, kappa, V domains shown)
VH: QIQLVQSGAEVKKPGASVKISCKASGYSFTDYHMNWVRQAPGKGLEWIGNIDPYYGSPTYNHKFKGRVTLTVDTSTSTAYMELSSLRSEDTAVYYCANYGRGNSFPYWGQGTLVTVSS
VL: DIVMTQSPSSLAVSLGERATINCKSSQSLLNSGNQRNYLTWYQQKPGQPPKLLIYWASTRESGVPDRFSGSGSGTDFTLTISSLQAEDVAVYYCQNDYSFPFTFGQGTKLEIKR
modifications: LD-12 linker-drug (Exatecan) on reduced interchain cysteines (Conjugation Method 1, DAR 8)
B7: 9D1-LD-65 (antibody, human IgG1, kappa, V domains shown)
VH: QIQLVQSGAEVKKPGASVKISCKASGYSFTDYHMNWVRQAPGKGLEWIGNIDPYYGSPTYNHKFKGRVTLTVDTSTSTAYMELSSLRSEDTAVYYCANYGRGNSFPYWGQGTLVTVSS
VL: DIVMTQSPSSLAVSLGERATINCKSSQSLLNSGNQRNYLTWYQQKPGQPPKLLIYWASTRESGVPDRFSGSGSGTDFTLTISSLQAEDVAVYYCQNDYSFPFTFGQGTKLEIKR
modifications: LD-65 linker-drug (Exatecan) on reduced interchain cysteines (Conjugation Method 1, DAR 8)
B8: 9D1-LD-66 (antibody, human IgG1, kappa, V domains shown)
VH: QIQLVQSGAEVKKPGASVKISCKASGYSFTDYHMNWVRQAPGKGLEWIGNIDPYYGSPTYNHKFKGRVTLTVDTSTSTAYMELSSLRSEDTAVYYCANYGRGNSFPYWGQGTLVTVSS
VL: DIVMTQSPSSLAVSLGERATINCKSSQSLLNSGNQRNYLTWYQQKPGQPPKLLIYWASTRESGVPDRFSGSGSGTDFTLTISSLQAEDVAVYYCQNDYSFPFTFGQGTKLEIKR
modifications: LD-66 linker-drug (Exatecan) on reduced interchain cysteines (Conjugation Method 1, DAR 8)
B9: 9D1-LD-72 (antibody, human IgG1, kappa, V domains shown)
VH: QIQLVQSGAEVKKPGASVKISCKASGYSFTDYHMNWVRQAPGKGLEWIGNIDPYYGSPTYNHKFKGRVTLTVDTSTSTAYMELSSLRSEDTAVYYCANYGRGNSFPYWGQGTLVTVSS
VL: DIVMTQSPSSLAVSLGERATINCKSSQSLLNSGNQRNYLTWYQQKPGQPPKLLIYWASTRESGVPDRFSGSGSGTDFTLTISSLQAEDVAVYYCQNDYSFPFTFGQGTKLEIKR
modifications: LD-72 linker-drug (Exatecan) on reduced interchain cysteines (Conjugation Method 1, DAR 8)
B10: 9D1-LD-71 (antibody, human IgG1, kappa, V domains shown)
VH: QIQLVQSGAEVKKPGASVKISCKASGYSFTDYHMNWVRQAPGKGLEWIGNIDPYYGSPTYNHKFKGRVTLTVDTSTSTAYMELSSLRSEDTAVYYCANYGRGNSFPYWGQGTLVTVSS
VL: DIVMTQSPSSLAVSLGERATINCKSSQSLLNSGNQRNYLTWYQQKPGQPPKLLIYWASTRESGVPDRFSGSGSGTDFTLTISSLQAEDVAVYYCQNDYSFPFTFGQGTKLEIKR
modifications: LD-71 linker-drug (SN38) on reduced interchain cysteines (Conjugation Method 1, DAR 8)
B11: 9D1-ELC122 (antibody, human IgG1, kappa, V domains shown)
VH: QIQLVQSGAEVKKPGASVKISCKASGYSFTDYHMNWVRQAPGKGLEWIGNIDPYYGSPTYNHKFKGRVTLTVDTSTSTAYMELSSLRSEDTAVYYCANYGRGNSFPYWGQGTLVTVSS
VL: DIVMTQSPSSLAVSLGERATINCKSSQSLLNSGNQRNYLTWYQQKPGQPPKLLIYWASTRESGVPDRFSGSGSGTDFTLTISSLQAEDVAVYYCQNDYSFPFTFGQGTKLEIKR
modifications: ELC122 linker-drug (SN38) on reduced interchain cysteines (Conjugation Method 1, DAR 8)
B12: 9D1-LD-31-P1 (antibody, human IgG1, kappa, V domains shown)
VH: QIQLVQSGAEVKKPGASVKISCKASGYSFTDYHMNWVRQAPGKGLEWIGNIDPYYGSPTYNHKFKGRVTLTVDTSTSTAYMELSSLRSEDTAVYYCANYGRGNSFPYWGQGTLVTVSS
VL: DIVMTQSPSSLAVSLGERATINCKSSQSLLNSGNQRNYLTWYQQKPGQPPKLLIYWASTRESGVPDRFSGSGSGTDFTLTISSLQAEDVAVYYCQNDYSFPFTFGQGTKLEIKR
modifications: LD-31-P1 linker-drug (Exatecan) on reduced interchain cysteines (Conjugation Method 1, DAR 8)
B13: 9D1-LD-88 (antibody, human IgG1, kappa, V domains shown)
VH: QIQLVQSGAEVKKPGASVKISCKASGYSFTDYHMNWVRQAPGKGLEWIGNIDPYYGSPTYNHKFKGRVTLTVDTSTSTAYMELSSLRSEDTAVYYCANYGRGNSFPYWGQGTLVTVSS
VL: DIVMTQSPSSLAVSLGERATINCKSSQSLLNSGNQRNYLTWYQQKPGQPPKLLIYWASTRESGVPDRFSGSGSGTDFTLTISSLQAEDVAVYYCQNDYSFPFTFGQGTKLEIKR
modifications: LD-88 linker-drug (Exatecan) on reduced interchain cysteines (Conjugation Method 1; DAR printed as 1 in Table 1)
B14: 9D1-LD-89 (antibody, human IgG1, kappa, V domains shown)
VH: QIQLVQSGAEVKKPGASVKISCKASGYSFTDYHMNWVRQAPGKGLEWIGNIDPYYGSPTYNHKFKGRVTLTVDTSTSTAYMELSSLRSEDTAVYYCANYGRGNSFPYWGQGTLVTVSS
VL: DIVMTQSPSSLAVSLGERATINCKSSQSLLNSGNQRNYLTWYQQKPGQPPKLLIYWASTRESGVPDRFSGSGSGTDFTLTISSLQAEDVAVYYCQNDYSFPFTFGQGTKLEIKR
modifications: LD-89 linker-drug (Exatecan) on reduced interchain cysteines (Conjugation Method 1; DAR printed as 1 in Table 1)
B15: 9D1-LD-82 (antibody, human IgG1, kappa, V domains shown)
VH: QIQLVQSGAEVKKPGASVKISCKASGYSFTDYHMNWVRQAPGKGLEWIGNIDPYYGSPTYNHKFKGRVTLTVDTSTSTAYMELSSLRSEDTAVYYCANYGRGNSFPYWGQGTLVTVSS
VL: DIVMTQSPSSLAVSLGERATINCKSSQSLLNSGNQRNYLTWYQQKPGQPPKLLIYWASTRESGVPDRFSGSGSGTDFTLTISSLQAEDVAVYYCQNDYSFPFTFGQGTKLEIKR
modifications: LD-82 linker-drug (structure, preparation and DAR not described in the filing)
B16: 9D1-LD-31-P2 (antibody, human IgG1, kappa, V domains shown)
VH: QIQLVQSGAEVKKPGASVKISCKASGYSFTDYHMNWVRQAPGKGLEWIGNIDPYYGSPTYNHKFKGRVTLTVDTSTSTAYMELSSLRSEDTAVYYCANYGRGNSFPYWGQGTLVTVSS
VL: DIVMTQSPSSLAVSLGERATINCKSSQSLLNSGNQRNYLTWYQQKPGQPPKLLIYWASTRESGVPDRFSGSGSGTDFTLTISSLQAEDVAVYYCQNDYSFPFTFGQGTKLEIKR
modifications: LD-31-P2 linker-drug (Exatecan) on reduced interchain cysteines (Conjugation Method 1, DAR 8)
B17: 9D1-LD-37 (antibody, human IgG1, kappa, V domains shown)
VH: QIQLVQSGAEVKKPGASVKISCKASGYSFTDYHMNWVRQAPGKGLEWIGNIDPYYGSPTYNHKFKGRVTLTVDTSTSTAYMELSSLRSEDTAVYYCANYGRGNSFPYWGQGTLVTVSS
VL: DIVMTQSPSSLAVSLGERATINCKSSQSLLNSGNQRNYLTWYQQKPGQPPKLLIYWASTRESGVPDRFSGSGSGTDFTLTISSLQAEDVAVYYCQNDYSFPFTFGQGTKLEIKR
modifications: LD-37 linker-drug (Exatecan) on reduced interchain cysteines (Conjugation Method 1, DAR 8)

Experiments:
Experiment in all cases: cell-based or functional assay
human Claudin18.2 [1] = target: T1, human Claudin18.2 (human, UniProt P56856 1-261)
T1 sequence (looked up): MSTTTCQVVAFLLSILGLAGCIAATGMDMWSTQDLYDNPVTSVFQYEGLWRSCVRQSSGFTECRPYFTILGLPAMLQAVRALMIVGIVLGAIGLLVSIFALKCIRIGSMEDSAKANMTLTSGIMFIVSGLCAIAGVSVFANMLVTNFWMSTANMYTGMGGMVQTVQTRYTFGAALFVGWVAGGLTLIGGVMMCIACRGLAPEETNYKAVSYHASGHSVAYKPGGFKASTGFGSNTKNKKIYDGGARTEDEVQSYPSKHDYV

human Claudin18.2 [2] = target: T1, human Claudin18.2; remark: listed apart in the source
human Claudin18.2 [3] = target: T1, human Claudin18.2; remark: listed apart in the source
human Claudin18.2 [4] = target: T1, human Claudin18.2; remark: listed apart in the source

Binder | IC50 of in vitro cell killing on NUGC4-hClaudin18.2 cells (CCK-8 cell viability, 120 h) (human Claudin18.2 [1]) | IC50 of in vitro cell killing on MC38-hClaudin18.2 cells (AlamarBlue cell viability) (human Claudin18.2 [2]) | IC50 of in vitro cell killing on HEK293-hClaudin18.2 cells (AlamarBlue cell viability, 72 h) (human Claudin18.2 [3]) | IC50 of inhibition of proliferation of MC38-hClaudin18.2 cells (AlamarBlue cell viability, 72 h) (human Claudin18.2 [4])
B1 | 0.184 nM | 11 nM |  | 
B2 | 1.27 nM | 1.4 nM |  | 
B3 | 1.16 nM | 2.22 nM |  | 
B4 | 0.064 nM | 0.407 nM |  | 
B5 | 0.053 nM | 0.53 nM |  | 
B6 | 0.58 nM | 0.799 nM |  | 
B7 | 0.701 nM | 1.61 nM | 0.086 nM | 
B8 | 0.996 nM | 1.09 nM | 0.996 nM | 
B9 | 0.553 nM | 1.08 nM |  | 
B10 |  |  | 0.397 nM | 
B11 |  |  | 0.628 nM | 
B12 |  | 4.35 nM |  | 
B13 |  |  |  | 1.46 nM
B14 |  |  |  | 0.757 nM
B15 |  |  |  | 8.01 nM
B16 |  | 2.91 nM |  | 
B17 |  | 0.802 nM |  | 
